According to the RNAGym collection of RNA variant scans (doi:10.1021/acssynbio.7b00057):

B1: Pistol ribozyme (parent)
chain: GGGUCGUUGUUCCAUAAUCGCGUGGAUAUGGCACGCAAGUUUCUACCGGGCACCGUAAAUGUCCGACUGGAGCCGUUCGGGCGGCUAUAAACAGACCUCAGGCCCGAAGCGUGGCGGCACCUGCCGCCGGUGGUAAAAAAGAUCGGAAGAGCACACGUCU

Variants of: B1
Experiment: aptazyme ON/OFF ratio, guanine; higher = stronger switching; co-transcriptional cleavage with and without guanine

Aptazyme ON/OFF ratio, 1.14:
U7G U8C U10C U11C C12G C13U
U7G U8C U10C U11A C12A C13G
U7G U8C G9U U11A C12A C13G
U7G U8C U11A C13A
U7G U8C U10A U11A C12A C13G

Aptazyme ON/OFF ratio, 2.17:
U7G U8C G9U U11A C12G

Aptazyme ON/OFF ratio, 1.46:
U7G U8C U11C C12G C13U
U7G U8C U11C C12A C13U

Aptazyme ON/OFF ratio, 1.39:
U7G U8C U10C U11A C12U
U7G U8C U11A

Aptazyme ON/OFF ratio, 1.2:
U7G U8C U10C U11A C12G C13U
U7G U8C U10A U11A C12U C13G
U7G U8C U10A U11A C12U C13A
U7G U8C U10C U11C C12A C13U
U7G U8C U10C C12G C13A

Aptazyme ON/OFF ratio, 1.19:
U7G U8C U10A U11G C12A C13U
U7G U8C U10C C12A C13A

Aptazyme ON/OFF ratio, 1.06:
U7G U8C U10C U11C C12G C13G
U7G U8C U10A U11C C12G C13G

Aptazyme ON/OFF ratio, 1.12:
U7G U8C G9U U11G C12G C13G
U7G U8C U10C U11A C12U C13A
U7G U8C G9U U10G U11G C12A C13G
U7G U8C U10A C12U C13U

Aptazyme ON/OFF ratio, 1.16:
U7G U8C U10C U11C C12G C13A
U7G U8C U10A U11G C12U C13U
U7G U8C U10A U11G C12U C13G
U7G U8C U10C U11G C12U C13G
U7G U8C U10A U11C C12G
U7G U8C U10C U11C C12U
U7G U8C U10A U11C C12G C13U
U7G U8C G9U U10G U11C C12U C13U
U7G U8C U10C C12A C13G

Aptazyme ON/OFF ratio, 2.14:
U7G U8C U10G U11C

Aptazyme ON/OFF ratio, 1.03:
U7G U8C U11A C13G
U7G U8C U10A U11C C12U

Aptazyme ON/OFF ratio, 1.15:
U7G U8C U10G U11A C12A
U7G U8C U10C U11G C12G
U7G U8C U10A U11A C12A C13U

Aptazyme ON/OFF ratio, 1.11:
U7G U8C U11C C12G C13G
U7G U8C G9U U10G U11G C12A C13A
U7G U8G G9A C12A C13G
U7G U8C U10A U11C C12G C13A

Aptazyme ON/OFF ratio, 3.24:
U7G U8C U10C C12U

Aptazyme ON/OFF ratio, 1.53:
U7G U8C U11C

Aptazyme ON/OFF ratio, 1.36:
U7G U8C U10G C12U
U7G U8C U10A C12A C13U
U7G U8C U10A C12U C13A
U7G U8C G9U U11G

Aptazyme ON/OFF ratio, 1.44:
U7G U8C U10C U11A C12A
U7G U8C G9U U10G U11G C12U C13U

Aptazyme ON/OFF ratio, 1.17:
U7G U8C G9U U10G U11G C12U C13A

Aptazyme ON/OFF ratio, 1.59:
U7G U8G G9A C12G

Aptazyme ON/OFF ratio, 2.71:
U7G U8C U10A U11A

Aptazyme ON/OFF ratio, 1.22:
U7G U8C U10C C12A
U7G U8C U10G U11A C12U
U7G U8C U10G U11G C13A
U7G U8C G9U U11A C12G C13U
U7G U8C U10A U11G C12U C13A
U7G U8C U10A U11G C12G C13A
U7G U8C U10A U11G C13A
U7G U8G C12A C13G
U7G U8C G9U U10G U11C C12U C13G
U7G U8C U10A U11A C12G C13G

Aptazyme ON/OFF ratio, 2.56:
U7G U8C G9U U11A C12U

Aptazyme ON/OFF ratio, 1.01:
U7G U8C U11G

Aptazyme ON/OFF ratio, 1.24:
U7G U8C U10A U11A C12U C13U
U7G U8C U10C U11G C12A
U7G U8C U10A C12A C13A
U7G U8C U10C C12G C13G
U7G U8C U10A U11C C12A
U7G U8C U10C C12A C13U

Aptazyme ON/OFF ratio, 1.5:
U7G U8C G9U U11A C12A C13U

Aptazyme ON/OFF ratio, 1.05:
U7G U8C G9U U11G C13G
U7G U8C U10G C12G
U7G U8C G9U U11C C12U C13G

Aptazyme ON/OFF ratio, 1.33:
U7G U8C U10G C12A
U7G U8C U10C U11C C12A C13G

Aptazyme ON/OFF ratio, 1.21:
U7G U8C U10C U11A C12G C13G
U7G U8C U10G U11A
U7G U8C U10A U11A C13U
U7G U8C U10C U11A C12A C13U
U7G U8C U10A C12A

Aptazyme ON/OFF ratio, 1.32:
U7G U8C G9U U11G C13A
U7G U8C U11C C13U
U7G U8C U11C C12G C13A
U7G U8C G9U U11C C12G C13G
U7G U8C G9U U11C C12G C13U
U7G U8C U11A C13U
U7G U8G G9A C12A C13A

Aptazyme ON/OFF ratio, 1.49:
U7G U8C G9U U11C C12U C13U
U7G U8G G9A C12A C13U

Aptazyme ON/OFF ratio, 1.29:
U7G U8C U10C U11G C12U C13A
U7G U8C U10A U11G
U7G U8C G9U U10G U11C C12G C13U
U7G U8C U10C U11C C12A
U7G U8G
U7G U8C U10A C12G
U7G U8C U10G U11G C12A C13U

Aptazyme ON/OFF ratio, 1.08:
U7G U8C G9U U11G C12G C13A
U7G U8C U10C U11A C12U C13G
U7G U8C G9U U10G U11G C12U C13G
U7G U8C U10G U11G C12G C13G
U7G U8C U10A U11G C12A C13A

Aptazyme ON/OFF ratio, 1.3:
U7G U8C G9U U11C C13U
U7G U8C U11C C13A
U7G U8C U10G U11G C13U
U7G U8C U10A U11G C12G C13G
U7G U8C G9U U11C C12G C13A
U7G U8C U10C U11G C12U

Aptazyme ON/OFF ratio, 1.07:
U7G U8C U11C C13G

Aptazyme ON/OFF ratio, 1.41:
U7G U8C G9U U11G C13U
U7G U8G G9A C12A

Aptazyme ON/OFF ratio, 1.23:
U7G U8C U10G U11C C12U C13G
U7G U8C U11A C12A C13A
U7G U8C U10A U11G C13G
U7G U8C U10A U11G C13U

Aptazyme ON/OFF ratio, 2.91:
U7G U8C G9U U11A C12A

Aptazyme ON/OFF ratio, 1.34:
U7G U8C G9U U10G U11G C12A C13U
U7G U8C G9U U10G U11C C12U C13A

Aptazyme ON/OFF ratio, 1.09:
U7G U8C G9U U11G C12G C13U
U7G U8C G9U U10G U11C C13G
U7G U8C U10G U11G C12A C13A

Aptazyme ON/OFF ratio, 1.25:
U7G U8C U11A C12A C13U
U7G U8C U10A U11G C12G C13U
U7G U8C U10C U11A C12G

Aptazyme ON/OFF ratio, 1.57:
U7G U8G C12A C13U

Aptazyme ON/OFF ratio, 1.04:
U7G U8C G9U U11C C13G
U7G U8C U10C U11A C12U C13U
U7G U8C U10A U11C

Aptazyme ON/OFF ratio, 1.27:
U7G U8C U10C U11C C12A C13A
U7G U8C U10C U11C C12G

Aptazyme ON/OFF ratio, 1.31:
U7G U8C U10G U11G
U7G U8C U10C U11G C12U C13U
U7G U8C G9U U11C C12U C13A
U7G U8C U10A C12U
U7G U8G C12A C13A

Aptazyme ON/OFF ratio, 1.38:
U7G U8C G9U U11C C13A
U7G U8C G9U U10G U11C C13A

Aptazyme ON/OFF ratio, 1.26:
U7G U8C U10G U11G C13G
U7G U8C U10C U11A C12A C13A
U7G U8C U11C C12A C13G
U7G U8C U10A C12U C13G
U7G U8C G9U U10G U11C C12U
U7G U8C U10A U11A C12G C13U

Aptazyme ON/OFF ratio, 1.8:
U7G U8C G9U U11A

Aptazyme ON/OFF ratio, 1.37:
U7G U8C U10C C12G
U7G U8C U11C C12A C13A

Aptazyme ON/OFF ratio, 1.4:
U7G U8C U10G U11C C12U C13A
U7G U8C U10G U11G C12G C13U

Aptazyme ON/OFF ratio, 2.88:
U7G U8C G9U U11C

Aptazyme ON/OFF ratio, 1.28:
U7G U8C G9U U11A C12A C13A
U7G U8C U10C C12G C13U

Aptazyme ON/OFF ratio, 1.47:
U7G U8C U10G U11C C12U C13U

Aptazyme ON/OFF ratio, 1.13:
U7G U8C U10C U11A C12G C13A
U7G U8C U10G U11A C12G
U7G U8C G9U U11A C12G C13G
U7G U8C U10A U11G C12A C13G
U7G U8C U10A U11A C12A C13A

Aptazyme ON/OFF ratio, 1.1:
U7G U8C U11A C12A C13G
U7G U8C G9U U11A C12G C13A
U7G U8C U10A C12A C13G
U7G U8C U10G U11G C12A C13G
U7G U8C U10A U11A C12G C13A

Aptazyme ON/OFF ratio, 1.18:
U7G U8C U10A U11A C13G
U7G U8C U10A U11A C13A
U7G U8C G9U U10G U11C C13U
U7G U8C U10G U11G C12G C13A
